A protein production outcome set (Wang et al. 2014)

Assay: label from the status in PepcDB records

Sequence	protein production
FETRAKGRSGEALRSLLNLGAKDAAIIRDNREVRIPIQSLQVGDVFVVRPGEKIATDGVVVEGTSAVDQSMITGESVPVEVAQGSHVTGATMNTSGRLLVTAQRVGADTTLAAMGRLVAEAQSNKAPVQKLVDKISQ	failed
FFSVSNIGLHARAYKDKLFVHTASLRSGNPYKQVDLLVLDAKGETVLQGATDDNGNALLNYTLNAGHVLVSRNGRDISILPFNQPALDLSEFAVAGRENPWFDVFAWSGRDLYRPGEMLRISALLRDRDGKPVKPQPVFLRLKQPDGKTFRETRLQPAEQGYLEFTQKIPSDAPTGRWRVEFRTDPASKEAVQGLAVRVEEFLPERMKLELSSAQPVLRAKAPFTLTADAAYLYGAPAAGNRFTANLAVAVEQHPLDNMPGWFFGDATL	failed
FKVRVGEPGQAGNPALVSAYGTGLEGGTTGIQSEFFINTTRAGPGTLSVTIEGPSKVKMDCQETPEGYKVMYTPMAPGNYLISVKYGGPNHIVGSPFKAKVTGQRLVSPGSANETSSI	not failed
FLTEFINYIKKSKVVLLEDLAFQMGLRTQDAINRIQDLLTEGTLTGVIDDRGKFIYITP	not failed
FMPTEKDVKTLQLTMKEYEAKDDWQLYLWKENEDFVGIMGIVKKENQVLEIQHLSVNPSHRHVGIGTKMVQELKSKFLEFTICGNEQTASFCEKC	failed
FTNHKGNPMQTERFNKILREAAKDVGIDKEVSSHILRHSHISLLSQQGVSLKAIMDRVGHSDHRTTLSIYSHVTEQMDKDMMNKLEQVKLG	failed
GAAGPWRLPIGNSVVASSPPVLQANAETWLDFTDLVFIDPVGTGYSRFVASGDEVRKHFYAVEGDISAMAVVIRRWLEKNDRLVSPKYLAGESYGGIRGPKVVDNLQTKQGVGVNGLILVSPVLDFRDLSGSSLLQYAARLPSMTAVARQQKGKVNRADLADVESYARSEFLTDLVKGEADKEATTRLADRVSALTGIDKTVSRRLAGRFDTREFQREFDRDRGRVTGRFDGAKLGLDPFPDSSAAHFGDPSADSLIAPLTSAAVQLTRSTLNWKPDGSYELLNGSVAEQWDFGRGRQPLESTTQLREILSVDPSLQVLVTGGLFDLAAPYFGTQMVLDQLPPTLAEKRVKFVVYPGGHMFYAEDAARQSLHDEVKAMMK	failed
GAPLQRMLDEIAGHAACPVVVTNLAHRVLATAGERSAVDDVLRDWERIARQAGGSEGAGWVRAELGGRGERWGRIVLCGYRGDAATGRLLADRAAEALVLHRMLGGSAHTWEEQSAQGLLTDLVSGVVPARQLLPRARAAGLPVNRRTFVPLVVRDGEPPVLDRVLRMLGLPGLVAELADGATAVLLSLARDQDAEALSAHFATRLRTESGASGTVVAAADPRTAWDDVPAGLREAQHVADAVAENSAVLDLPAVVRLRDVHLRGLIRLLRDDPYVQSFAERELNGLLCGRDAESDLLPVLRTYLATGRNKSRTAQLHHVSRPALYRRLEAIQARLGVDLDDFEQAASVHIALLAHDAQQ	failed
GDAHDQQALDYALYHLRIMTPAHGERSSIAAKGLTGEGYKGHVFWDTEVFLLPFHLFSDPTVARSLLRYRWHNLPGAQEKARRNGWQGALFPWESARSGEEETPEFAAINIRTGLRQKVASAQAEHHLVADIAWAVIQYWQTTGDESFIAHEGMALLLETAKFWISRAVRVNDRLEIHDVIGPDEYTEHVNNNAFTSYMVYYNVQQALSIARQFGCSDDAFIHRAEMFLKELRLPEIQPDGVLPQDDSFMTKPAINLAKYKAAAGKQTILLDYSRAEVNEMQILKQADVVMLNYMLPEQFSSASCLANLQFYEPRTIHDSSLSKAIHGIVAARCGLLTQSYQFWREGTEIDLGADPHSCDDGIHAAATGAIWLGAIQGFA	failed
GDAQAGLVLLHGRGASAQGMLQLADDLDVPDIAHLAPQARMRSWYPQSFMAPRDQNEPELASALATIGDVLGRLADAGIGPARTVLLGFSQGACLATTYAAQTPQRYGGVVGLSGGLIGPDGASFDYEGSLDATPVFLGCSDQDPYIPRARVAETADVLRALNADVTSRIYEGLGHTINDAERQHARSLLRRCVD	failed
GEEDWVLPSEVEVLESIYLDELQVIKGNGRTSPWEIYITLHPATAEDQDSQYVCFTLVLQVPAEYPHEVPQISIRNPRGLSDEQIHTILQVLGHVAKAGLGTAMLYELIEKGKEILTDNNIPHGQCVICLYGFQEKEAFTKTPCYHYFHCHCLARY	failed
GEKTFTQRSRLFVGNLPPDITEEEMRKLFEKYGKAGEVFIHKDKGFGFIRLETRTLAEIAKVELDNMPLRGKQLRVRFACHSASLT	not failed
